Measured values as given in PMC4156824 (Molecular cell, 2014).

B1: Mcm3 (Flag-tagged subunit of Mcm2-7) (natural protein, S. cerevisiae, UniProt P24279 1-971, looked up)
chain: MEGSTGFDGDATTFFAPDAVFGDRVRRFQEFLDTFTSYRDSVRSIQVYNSNNAANYNDDQDDADERDLLGDDDGDDLEKEKKAASSTSLNILPHRIIISLDDLREFDRSFWSGILVEPAYFIPPAEKALTDLADSMDDVPHPNASAVSSRHPWKLSFKGSFGAHALSPRTLTAQHLNKLVSVEGIVTKTSLVRPKLIRSVHYAAKTGRFHYRDYTDATTTLTTRIPTPAIYPTEDTEGNKLTTEYGYSTFIDHQRITVQEMPEMAPAGQLPRSIDVILDDDLVDKTKPGDRVNVVGVFKSLGAGGMNQSNSNTLIGFKTLILGNTVYPLHARSTGVAARQMLTDFDIRNINKLSKKKDIFDILSQSLAPSIYGHDHIKKAILLMLMGGVEKNLENGSHLRGDINILMVGDPSTAKSQLLRFVLNTASLAIATTGRGSSGVGLTAAVTTDRETGERRLEAGAMVLADRGVVCIDEFDKMTDVDRVAIHEVMEQQTVTIAKAGIHTTLNARCSVIAAANPVFGQYDVNRDPHQNIALPDSLLSRFDLLFVVTDDINEIRDRSISEHVLRTHRYLPPGYLEGEPVRERLNLSLAVGEDADINPEEHSNSGAGVENEGEDDEDHVFEKFNPLLQAGAKLAKNKGNYNGTEIPKLVTIPFLRKYVQYAKERVIPQLTQEAINVIVKNYTDLRNDDNTKKSPITARTLETLIRLATAHAKVRLSKTVNKVDAKVAANLLRFALLGEDIGNDIDEEESEYEEALSKRSPQKSPKKRQRVRQPASNSGSPIKSTPRRSTASSVNATPSSARRILRFQDDEQNAGEDDNDIMSPLPADEEAELQRRLQLGLRVSPRRREHLHAPEEGSSGPLTEVGTPRLPNVSSAGQDDEQQQSVISFDNVEPGTISTGRLSLISGIIARLMQTEIFEEESYPVASLFERINEELPEEEKFSAQEYLAGLKIMSDRNNLMVADDKVWRV

Key:
Mcm6 = Mcm6 (S. cerevisiae, UniProt P53091 1-1017); assay: co-IP
Chain of Mcm6 (P53091 whole entry): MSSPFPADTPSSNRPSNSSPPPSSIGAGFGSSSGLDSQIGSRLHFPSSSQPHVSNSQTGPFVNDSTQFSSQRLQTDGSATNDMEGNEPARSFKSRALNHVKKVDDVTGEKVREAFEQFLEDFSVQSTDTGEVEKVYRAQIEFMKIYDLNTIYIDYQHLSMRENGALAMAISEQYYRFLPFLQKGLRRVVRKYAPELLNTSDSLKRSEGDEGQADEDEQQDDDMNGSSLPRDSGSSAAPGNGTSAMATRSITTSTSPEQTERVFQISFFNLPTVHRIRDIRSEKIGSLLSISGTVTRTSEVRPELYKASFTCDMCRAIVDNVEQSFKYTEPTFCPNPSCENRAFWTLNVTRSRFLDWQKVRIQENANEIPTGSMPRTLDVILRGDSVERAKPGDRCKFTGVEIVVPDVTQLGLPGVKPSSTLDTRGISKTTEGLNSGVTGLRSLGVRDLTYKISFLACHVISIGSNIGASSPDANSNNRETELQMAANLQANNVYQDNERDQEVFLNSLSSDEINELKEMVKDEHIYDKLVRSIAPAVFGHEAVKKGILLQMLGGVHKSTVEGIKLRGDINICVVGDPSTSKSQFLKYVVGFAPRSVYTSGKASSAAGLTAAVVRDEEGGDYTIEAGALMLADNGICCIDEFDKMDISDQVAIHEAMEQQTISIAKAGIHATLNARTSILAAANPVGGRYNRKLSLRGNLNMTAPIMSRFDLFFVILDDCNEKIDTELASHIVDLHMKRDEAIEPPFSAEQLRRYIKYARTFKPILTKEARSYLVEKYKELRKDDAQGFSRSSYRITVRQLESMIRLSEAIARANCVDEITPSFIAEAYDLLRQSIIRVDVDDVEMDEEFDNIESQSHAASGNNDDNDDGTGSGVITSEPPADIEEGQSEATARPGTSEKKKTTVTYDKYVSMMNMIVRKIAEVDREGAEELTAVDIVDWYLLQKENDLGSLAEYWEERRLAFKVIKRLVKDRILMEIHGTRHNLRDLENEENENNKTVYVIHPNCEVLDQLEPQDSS

[1] = biological target: B1; assay: co-IP

binding result (Mcm6) | binding result [1] | Binder
binds |  | B1
 | binds | Mcm7 (natural protein, S. cerevisiae, UniProt P38132 1-845, looked up) MSAALPSIQLPVDYNNLFNEITDFLVTFKQDTLSSDATRNENEDENLDAENIEQHLLEKGPKYMAMLQKVANRELNSVIIDLDDILQYQNEKFLQGTQADDLVSAIQQNANHFTELFCRAIDNNMPLPTKEIDYKDDVLDVILNQRRLRNERMLSDRTNEIRSENLMDTTMDPPSSMNDALREVVEDETELFPPNLTRRYFLYFKPLSQNCARRYRKKAISSKPLSVRQIKGDFLGQLITVRGIITRVSDVKPAVEVIAYTCDQCGYEVFQEVNSRTFTPLSECTSEECSQNQTKGQLFMSTRASKFSAFQECKIQELSQQVPVGHIPRSLNIHVNGTLVRSLSPGDIVDVTGIFLPAPYTGFKALKAGLLTETYLEAQFVRQHKKKFASFSLTSDVEERVMELITSGDVYNRLAKSIAPEIYGNLDVKKALLLLLVGGVDKRVGDGMKIRGDINVCLMGDPGVAKSQLLKAICKISPRGVYTTGKGSSGVGLTAAVMKDPVTDEMILEGGALVLADNGICCIDEFDKMDESDRTAIHEVMEQQTISISKAGINTTLNARTSILAAANPLYGRYNPRLSPLDNINLPAALLSRFDILFLMLDIPSRDDDEKLAEHVTYVHMHNKQPDLDFTPVEPSKMREYIAYAKTKRPVMSEAVNDYVVQAYIRLRQDSKREMDSKFSFGQATPRTLLGIIRLSQALAKLRLADMVDIDDVEEALRLVRVSKESLYQETNKSKEDESPTTKIFTIIKKMLQETGKNTLSYENIVKTVRLRGFTMLQLSNCIQEYSYLNVWHLINEGNTLKFVDDGTMDTDQEDSLVSTPKLAPQTTASANVSAQDSDIDLQDA
 | binds | Mcm4 (natural protein, S. cerevisiae, UniProt P30665 1-933, looked up) MSQQSSSPTKEDNNSSSPVVPNPDSVPPQLSSPALFYSSSSSQGDIYGRNNSQNLSQGEGNIRAAIGSSPLNFPSSSQRQNSDVFQSQGRQGRIRSSASASGRSRYHSDLRSDRALPTSSSSLGRNGQNRVHMRRNDIHTSDLSSPRRIVDFDTRSGVNTLDTSSSSAPPSEASEPLRIIWGTNVSIQECTTNFRNFLMSFKYKFRKILDEREEFINNTTDEELYYIKQLNEMRELGTSNLNLDARNLLAYKQTEDLYHQLLNYPQEVISIMDQTIKDCMVSLIVDNNLDYDLDEIETKFYKVRPYNVGSCKGMRELNPNDIDKLINLKGLVLRSTPVIPDMKVAFFKCNVCDHTMAVEIDRGVIQEPARCERIDCNEPNSMSLIHNRCSFADKQVIKLQETPDFVPDGQTPHSISLCVYDELVDSCRAGDRIEVTGTFRSIPIRANSRQRVLKSLYKTYVDVVHVKKVSDKRLDVDTSTIEQELMQNKVDHNEVEEVRQITDQDLAKIREVAAREDLYSLLARSIAPSIYELEDVKKGILLQLFGGTNKTFTKGGRYRGDINILLCGDPSTSKSQILQYVHKITPRGVYTSGKGSSAVGLTAYITRDVDTKQLVLESGALVLSDGGVCCIDEFDKMSDSTRSVLHEVMEQQTISIAKAGIITTLNARSSILASANPIGSRYNPNLPVTENIDLPPPLLSRFDLVYLVLDKVDEKNDRELAKHLTNLYLEDKPEHISQDDVLPVEFLTMYISYAKEHIHPIITEAAKTELVRAYVGMRKMGDDSRSDEKRITATTRQLESMIRLAEAHAKMKLKNVVELEDVQEAVRLIRSAIKDYATDPKTGKIDMNLVQTGKSVIQRKLQEDLSREIMNVLKDQASDSMSFNELIKQINEHSQDRVESSDIQEALSRLQQEDKVIVLGEGVRRSVRLNNRV
 | binds | Mcm2 (natural protein, S. cerevisiae, UniProt P29469 1-868, looked up) MSDNRRRRREEDDSDSENELPPSSPQQHFRGGMNPVSSPIGSPDMINPEGDDNEVDDVPDIDEVEEQMNEVDLMDDNMYEDYAADHNRDRYDPDQVDDREQQELSLSERRRIDAQLNERDRLLRNVAYIDDEDEEQEGAAQLDEMGLPVQRRRRRRQYEDLENSDDDLLSDMDIDPLREELTLESLSNVKANSYSEWITQPNVSRTIARELKSFLLEYTDETGRSVYGARIRTLGEMNSESLEVNYRHLAESKAILALFLAKCPEEMLKIFDLVAMEATELHYPDYARIHSEIHVRISDFPTIYSLRELRESNLSSLVRVTGVVTRRTGVFPQLKYVKFNCLKCGSILGPFFQDSNEEIRISFCTNCKSKGPFRVNGEKTVYRNYQRVTLQEAPGTVPPGRLPRHREVILLADLVDVSKPGEEVEVTGIYKNNYDGNLNAKNGFPVFATIIEANSIKRREGNTANEGEEGLDVFSWTEEEEREFRKISRDRGIIDKIISSMAPSIYGHRDIKTAVACSLFGGVPKNVNGKHSIRGDINVLLLGDPGTAKSQILKYVEKTAHRAVFATGQGASAVGLTASVRKDPITKEWTLEGGALVLADKGVCLIDEFDKMNDQDRTSIHEAMEQQSISISKAGIVTTLQARCSIIAAANPNGGRYNSTLPLAQNVSLTEPILSRFDILCVVRDLVDEEADERLATFVVDSHVRSHPENDEDREGEELKNNGESAIEQGEDEINEQLNARQRRLQRQRKKEEEISPIPQELLMKYIHYARTKIYPKLHQMDMDKVSRVYADLRRESISTGSFPITVRHLESILRIAESFAKMRLSEFVSSYDLDRAIKVVVDSFVDAQKVSVRRQLRRSFAIYTLGH
